Measured values: patent US11814435B2, “Therapeutic antibodies and their uses” (PFIZER INC., priority 2015, dated 2023)

T1: hBCMA (human BCMA) (Homo sapiens, UniProt Q02223)
T1 sequence (Q02223 1-184): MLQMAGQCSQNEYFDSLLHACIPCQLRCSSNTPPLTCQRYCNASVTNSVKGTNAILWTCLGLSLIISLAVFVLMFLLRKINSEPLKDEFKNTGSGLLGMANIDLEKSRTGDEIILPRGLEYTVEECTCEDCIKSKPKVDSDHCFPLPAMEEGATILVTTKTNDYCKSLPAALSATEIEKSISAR


Legend:
hBCMA (human BCMA) = biological target: T1, hBCMA (human BCMA); test: Kinetics and affinity of hBCMA/human IgG interactions by SPR (Bio-Rad Proteon XPR36); format: binding; settings: 37° C.; for ka Human / kd Human / Kd: human BCMA
In short: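 Kinetics and affinity came from double-referenced sensorgrams fit to a 1:1 Langmuir model with mass transport. The fits used a five-step kinetic titration of BCMA (0.08-50 nM, 2 min each, then 2 h dissociation) over immobilized IgGs, run at 37° C. or 25° C. in HBS-T+ pH 7.4 containing 1 mg/mL BSA.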

cyBCMA = test: Kinetics and affinity of cyBCMA/human IgG interactions by SPR (Bio-Rad Proteon XPR36); format: binding, cynomolgus; settings: 37° C.
Cyno BCMA = test: Kinetics and affinity of cyno BCMA/human IgG interactions by SPR (Bio-Rad Proteon XPR36); format: binding, cynomolgus; settings: 37° C.

| Molecule | ka (1/Ms) huBCMA @ 37° C. (hBCMA (human BCMA)) [M⁻¹ s⁻¹] | kd (1/s) huBCMA @37° C. (hBCMA (human BCMA)) [s⁻¹] | ka (1/Ms) cyBCMA @ 37° C. (cyBCMA) [M⁻¹ s⁻¹] | kd (1/s) cyBCMA @37° C. (cyBCMA) [s⁻¹] | ka Human (hBCMA (human BCMA)) [M⁻¹ s⁻¹] | kd Human (hBCMA (human BCMA)) [s⁻¹] | ka Cyno (Cyno BCMA) [M⁻¹ s⁻¹] | kd Cyno (Cyno BCMA) [s⁻¹] | Kd (hBCMA (human BCMA)) [pM] | Kd (Cyno BCMA) [pM] |
| --- | --- | --- | --- | --- | --- | --- | --- | --- | --- | --- |
| L3.PY/L3.KY/H3.YA: anti-BCMA antibody (antibody, V domains shown) VH: EVQLLESGGGLVQPGGSLRLSCAASGFTFGSYAMTWVRQAPGKGLEWVSAISGSGGNTFYADSVKGRFTISRDNSKNTLYLQMNSLRAEDTAVYYCARVSPIYAGMDYWGQGTLVTVSS VL: EIVLTQSPGTLSLSPGERATLSCRASQSVSSSYLAWYQQKPGQAPRLLIYGASSRATGIPDRFSGSGSGTDFTLTISRLEPEDFAVYYCKYYPYPPSFTFGQGTKVEIK | 3.3e+06 | 0.000912 | 1.84e+06 | 0.00428 |  |  |  |  |  |  |
| L3.PY/L3.KY/H3.TAQ: anti-BCMA antibody (antibody, V domains shown) VH: EVQLLESGGGLVQPGGSLRLSCAASGFTFGSYAMTWVRQAPGKGLEWVSAISGSGGNTFYADSVKGRFTISRDNSKNTLYLQMNSLRAEDTAVYYCTRVSPIAAQMDYWGQGTLVTVSS VL: EIVLTQSPGTLSLSPGERATLSCRASQSVSSSYLAWYQQKPGQAPRLLIYGASSRATGIPDRFSGSGSGTDFTLTISRLEPEDFAVYYCKYYPYPPSFTFGQGTKVEIK | 2.79e+06 | 0.000649 | 1.81e+06 | 0.00192 |  |  |  |  |  |  |
| L3.PY/L3.KF/H2.DY: anti-BCMA antibody (antibody, V domains shown) VH: EVQLLESGGGLVQPGGSLRLSCAASGFTFGSYAMTWVRQAPGKGLEWVSAIDYSGGNTFYADSVKGRFTISRDNSKNTLYLQMNSLRAEDTAVYYCARVSPIASGMDYWGQGTLVTVSS VL: EIVLTQSPGTLSLSPGERATLSCRASQSVSSSYLAWYQQKPGQAPRLLIYGASSRATGIPDRFSGSGSGTDFTLTISRLEPEDFAVYYCKFYPYPPSFTFGQGTKVEIK | 2.74e+06 | 0.00182 | 2.08e+06 | 0.00368 |  |  |  |  |  |  |
| L3.PY/L3.KF/H2.YQ: anti-BCMA antibody (antibody, V domains shown) VH: EVQLLESGGGLVQPGGSLRLSCAASGFTFGSYAMTWVRQAPGKGLEWVSAISYQGGNTFYADSVKGRFTISRDNSKNTLYLQMNSLRAEDTAVYYCARVSPIASGMDYWGQGTLVTVSS VL: EIVLTQSPGTLSLSPGERATLSCRASQSVSSSYLAWYQQKPGQAPRLLIYGASSRATGIPDRFSGSGSGTDFTLTISRLEPEDFAVYYCKFYPYPPSFTFGQGTKVEIK | 1.96e+06 | 0.00223 | 1.41e+06 | 0.00501 |  |  |  |  |  |  |
| L3.PY/L3.KF/H2.LT: anti-BCMA antibody (antibody, V domains shown) VH: EVQLLESGGGLVQPGGSLRLSCAASGFTFGSYAMTWVRQAPGKGLEWVSAISLTGGNTFYADSVKGRFTISRDNSKNTLYLQMNSLRAEDTAVYYCARVSPIASGMDYWGQGTLVTVSS VL: EIVLTQSPGTLSLSPGERATLSCRASQSVSSSYLAWYQQKPGQAPRLLIYGASSRATGIPDRFSGSGSGTDFTLTISRLEPEDFAVYYCKFYPYPPSFTFGQGTKVEIK | 2.75e+06 | 0.00191 | 1.91e+06 | 0.00413 |  |  |  |  |  |  |
| L3.PY/L3.KF/H2.QL: anti-BCMA antibody (antibody, V domains shown) VH: EVQLLESGGGLVQPGGSLRLSCAASGFTFGSYAMTWVRQAPGKGLEWVSAISGSGGNTFYADQLKGRFTISRDNSKNTLYLQMNSLRAEDTAVYYCARVSPIASGMDYWGQGTLVTVSS VL: EIVLTQSPGTLSLSPGERATLSCRASQSVSSSYLAWYQQKPGQAPRLLIYGASSRATGIPDRFSGSGSGTDFTLTISRLEPEDFAVYYCKFYPYPPSFTFGQGTKVEIK | 2.07e+06 | 0.00125 | 1.42e+06 | 0.0031 |  |  |  |  |  |  |
| A02_Rd4_6 nM_C26: anti-BCMA antibody (antibody, V domains shown) VH: EVQLLESGGGLVQPGGSLRLSCAASGFTFSSYAMNWVRQAPGKGLEWVSAISDSGGSTYYADSVKGRFTISRDNSKNTLYLQMNSLRAEDTAVYYCARYWPMSLWGQGTLVTVSS VL: EIVLTQSPGTLSLSPGERATLSCRASQSVSSLYLAWYQQKPGQAPRLLMYDASIRATGIPDRFSGSGSGTDFTLTISRLEPEDFAVYYCQQYQVWPLTFGQGTKVEIK |  |  |  |  | 4.26e+06 | 0.000139 | 2.21e+06 | 0.000448 |  |  |
| A02_Rd4_6 nM_C25: anti-BCMA antibody (antibody, V domains shown) VH: EVQLLESGGGLVQPGGSLRLSCAASGFTFSSYAMNWVRQAPGKGLEWVSAISDSGGSRWYADSVKGRFTISRDNSKNTLYLQMNSLRAEDTAVYYCARYWPMTPWGQGTLVTVSS VL: EIVLTQSPGTLSLSPGERATLSCRASQSVSSSYLAWYQQKPGQAPRLLMYDASIRATGIPDRFSGSGSGTDFTLTISRLEPEDFAVYYCQQYLDWPLTFGQGTKVEIK |  |  |  |  | 2.75e+06 | 0.00018 | 1.5e+06 | 0.00033 |  |  |
| A02_Rd4_6 nM_C22: anti-BCMA antibody (antibody, V domains shown) VH: EVQLLESGGGLVQPGGSLRLSCAASGFTFSSYAMNWVRQAPGKGLEWVSAVLDSGGSTYYADSVKGRFTISRDNSKNTLYLQMNSLRAEDTAVYYCARYWPMTPWGQGTLVTVSS VL: EIVLTQSPGTLSLSPGERATLSCRASQSVSSSYLAWYQQKPGQAPRLLMYDASIRATGIPDRFSGSGSGTDFTLTISRLEPEDFAVYYCQQYQVWPLTFGQGTKVEIK |  |  |  |  | 3.38e+06 | 0.000182 | 1.84e+06 | 0.000324 |  |  |
| A02_Rd4_6 nM_C19: anti-BCMA antibody (antibody, V domains shown) VH: EVQLLESGGGLVQPGGSLRLSCAASGFTFSSYAMNWVRQAPGKGLEWVSAISDSGGSRWYADSVKGRFTISRDNSKNTLYLQMNSLRAEDTAVYYCARYWPMSDWGQGTLVTVSS VL: EIVLTQSPGTLSLSPGERATLSCRASQSVSVLYLAWYQQKPGQAPRLLMYDASIRATGIPDRFSGSGSGTDFTLTISRLEPEDFAVYYCQQYLAWPLTFGQGTKVEIK |  |  |  |  | 3e+06 | 0.000148 | 2.54e+06 | 0.000661 | 49 | 260 |
| A02_Rd4_0.6 nM_C03: anti-BCMA antibody (antibody, V domains shown) VH: EVQLLESGGGLVQPGGSLRLSCAASGFTFSSYAMNWVRQAPGKGLEWVSAISDSGGSKWYADSVKGRFTISRDNSKNTLYLQMNSLRAEDTAVYYCARYWPMSLWGQGTLVTVSS VL: EIVLTQSPGTLSLSPGERATLSCRASQSVSSSYLAWYQQKPGQAPRLLMYDASIRATGIPDRFSGSGSGTDFTLTISRLEPEDFAVYYCQQYFTWPLTFGQGTKVEIK |  |  |  |  | 4.27e+06 | 0.000182 | 2.12e+06 | 0.000426 |  |  |
| A02_Rd4_6 nM_C07: anti-BCMA antibody (antibody, V domains shown) VH: EVQLLESGGGLVQPGGSLRLSCAASGFTFSSYAMNWVRQAPGKGLEWVSAIGGSGGSLPYADSVKGRFTISRDNSKNTLYLQMNSLRAEDTAVYYCARYWPMDSWGQGTLVTVSS VL: EIVLTQSPGTLSLSPGERATLSCRASQSVSPYYLAWYQQKPGQAPRLLMYDASIRATGIPDRFSGSGSGTDFTLTISRLEPEDFAVYYCQQYERWPLTFGQGTKVEIK |  |  |  |  | 1.48e+06 | 0.000189 | 691000 | 0.000786 |  |  |
| A02_Rd4_6 nM_C23: anti-BCMA antibody (antibody, V domains shown) VH: EVQLLESGGGLVQPGGSLRLSCAASGFTFSSYAMNWVRQAPGKGLEWVSAISDSGGSGWYADSVKGRFTISRDNSKNTLYLQMNSLRAEDTAVYYCARYWPMSLWGQGTLVTVSS VL: EIVLTQSPGTLSLSPGERATLSCRASQSVSVEYLAWYQQKPGQAPRLLMYDASIRATGIPDRFSGSGSGTDFTLTISRLEPEDFAVYYCQQYARWPLTFGQGTKVEIK |  |  |  |  | 1.22e+07 | 0.000255 | 2.63e+06 | 0.000414 |  |  |
| A02_Rd4_0.6 nM_C18: anti-BCMA antibody (antibody, V domains shown) VH: EVQLLESGGGLVQPGGSLRLSCAASGFTFSSYAMNWVRQAPGKGLEWVSAVLDSGGSTYYADSVKGRFTISRDNSKNTLYLQMNSLRAEDTAVYYCARYWPMSLWGQGTLVTVSS VL: EIVLTQSPGTLSLSPGERATLSCRASQSVSELYLAWYQQKPGQAPRLLMYDASIRATGIPDRFSGSGSGTDFTLTISRLEPEDFAVYYCQQYFGWPLTFGQGTKVEIK |  |  |  |  | 4.73e+06 | 0.000229 | 3.24e+06 | 0.000639 | 48 | 197 |
